From patent publication US20240117061A1 (WUHAN YZY BIOPHARMA, published 2024)

T1: recombinant human BCMA-his fusion protein (ACRO Biosystem, Cat. No. BCA-H522y) (human, UniProt Q02223 1-54)
T1 construct: extracellular domain; Bought protein; also called huBCMA-his; hu BCMA-his; not shown: His tag
T1 sequence (looked up): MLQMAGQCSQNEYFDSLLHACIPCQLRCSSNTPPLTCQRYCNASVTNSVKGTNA

T2: human BCMA on cells (NCI-H929, U266B1, HEK293 huBCMA) (human, UniProt Q02223 1-184)
T2 construct: whole, on cells; also called cell surface BCMA antigen
T2 sequence (looked up): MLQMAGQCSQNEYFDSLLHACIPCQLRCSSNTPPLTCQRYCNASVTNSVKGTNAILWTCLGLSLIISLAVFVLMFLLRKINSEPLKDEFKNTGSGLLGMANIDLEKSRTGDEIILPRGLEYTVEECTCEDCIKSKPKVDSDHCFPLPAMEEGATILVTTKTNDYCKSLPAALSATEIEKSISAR


Assays:
[1] = target: T1, recombinant human BCMA-his fusion …; test: competitive ELISA, coated huBCMA-his, competitor 83A10-biotin, antibody at 7 µg/mL
[2] = target: T2, human BCMA on cells (NCI-H929, U266B1, …); test: flow cytometry on NCI-H929 cells
Protocol: (§1) Procedures: Preparation of cell suspensions: The cells were resuspended in PBS, and the cell density was adjusted to 2×10⁵ cells/well. Mouse antibodies were added to a 96-well plate at […] and serially 3-fold diluted from 3000 nM. The plate was incubated for 1 h at 4° C. 150 μL of precooled PBS containing 1% of FBS was added into the 96-well plate after the co-incubation with the primary antibody was finished. The mixtures were centrifuged at 300×g for 5 min and the supernatants were discarded. The above procedures were repeated once. The fluorescent secondary antibody PE […] (Biolegend, 409304) was added at 80 μL/well. The plate was incubated at 4° C. for 30 min. 150 μL of precooled PBS containing 1% of FBS was added into the 96-well plate after the co-incubation with the secondary antibody was finished. The mixtures were uniformly mixed with a pipette. The 96-well plate was centrifuged at 300×g for 5 min in a plate centrifuge and the supernatants were removed. The above procedures were repeated once. The cells were resuspended in 100 μL of PBS containing 1% of FBS and detected on a flow cytometry (BD Accuri™ C6).

[3] = target: T1, recombinant human BCMA-his fusion …; test: competitive ELISA, coated huBCMA-his, competitor 83A10-biotin
[4] = target: T1, recombinant human BCMA-his fusion …; test: competitive ELISA, coated huBCMA-his, competitor APRIL-biotin
[5] = target: T1, recombinant human BCMA-his fusion …; test: SPR (Biacore T200), anti-His capture on CM5, 1:1 fit
Protocol: (§2) In this example, the antigen-antibody binding kinetics and affinity were determined by the BIACORE method.
(§3) Procedures: The anti-histidine antibody (GE, His capture Kit, Cat. No. 28995056) was conjugated to the Sereis S Sensor Chip CMS to capture the test articles, thus acquiring the binding kinetic and affinity data of the antigen, as an analyte, to the test articles. The initial concentration for detecting the binding of the antigen and the test articles was 10 nM. […] The Start up flushing process (1×HBS-EP+buffer) was performed at least thrice before loading to equilibrate the system. The association and dissociation tendencies between the antigen and the test articles were detected. When the dissociation was completed, a regeneration reagent was loaded for regeneration before the detection of the next concentration was performed. After the detection was finished, the data were fitted by using a 1:1 Binding fitting mode in data analysis software (Biacore T200 Evaluation Software).

[6] = target: T1, recombinant human BCMA-his fusion …; test: ELISA, coated antigen
Protocol: (§4) Procedures: huBCMA-his and cynoBCMA-his antigens were prepared into 0.5 μg/mL coating solutions with PBS (pH 7.4). The coating solutions were added to a microplate at 100 μL/well and incubated at 4° C. overnight. The residual coating solution was discarded before 3% BSA was added at 300 μL/well, and the plate was blocked for 3 h at room temperature. The microplate was washed once with PB ST at 300 The stock humanized monoclonal antibody solutions were serially 3-fold diluted to the 11th concentration. The dilutions were added to the microplate at 100 μL/well. After a 1-h incubation at room temperature, the microplate was washed thrice with PBST at 300 The HRP-conjugated 6*His, His-Tag antibody was 25,000-fold diluted with 1% BSA-PBST and added at 100 After another 1-h incubation at room temperature, the microplate was washed thrice with PB ST at 300 μL/well and dried. The TMB chromogenic solution was added at 100 μL. After a 5-min reaction at room temperature, 2 M H2504 was added at 100 μL/well to terminate the reaction. The microplate was placed on a microplate reader (Molecular Devices, SPECTRA Max plus 384) and the absorbance OD450 value was read at 450 nm wavelength.

[7] = target: T2, human BCMA on cells (NCI-H929, U266B1, …); test: flow cytometry on NCI-H929 cells; remark: listed apart in the source
Protocol: (§5) The affinities of the 3 mouse antibodies for cell surface BCMA antigen were assessed using FACS. Materials: cell lines NCI-H929, U266B1, HEK293 cynoBCMA and HEK293; PBS buffer; FBS (fetal bovine serum; Gibco, 10099141); PE goat anti-mouse IgG Fc (Biolegend, 405307). Procedures: The cells were resuspended in PBS to prepare cell suspensions containing 200,000 cells. Mouse BCMA antibodies were added to a 96-well plate at 50 μL/well and serially 3-fold diluted from 3000 nM. The plate was incubated for 1 h at 4° C. 150 μL of precooled PBS containing 1% of FBS was added into the 96-well plate after the co-incubation with the primary antibody was finished. The mixtures were centrifuged at 300×g for 5 min and the supernatants were discarded. The above procedures were repeated once. The fluorescent secondary antibody PE goat anti-mouse IgG Fc was added at 80 μL/well. The plate was incubated at 4° C. for 30 min. 150 μL of precooled PBS containing 1% of FBS was added into the 96-well plate after the co-incubation with the secondary antibody was finished. The mixtures were uniformly mixed with a pipette. The 96-well plate was centrifuged at 300×g for 5 min in a plate centrifuge and the supernatants were discarded. The above procedures were repeated once. The cells were resuspended in 100 μL of PBS containing 1% of FBS and detected on a flow cytometry (BD Accuri™ C6).

[8] = target: T2, human BCMA on cells (NCI-H929, U266B1, …); test: flow cytometry on U266B1 cells
Protocol: as §5

[9] = target: T3, recombinant human BCMA-huFc fusion protein (human); test: indirect ELISA, coated antigen
T3 construct: also called huBCMA-huFc
Protocol: Procedures: Human, mouse and monkey BCMA antigens were prepared into 0.5 μg/mL coating solutions with PBS buffer. The coating solutions were added to a microplate at 100 μL/well and incubated at 4° C. overnight. The residual coating solution was discarded before 3% BSA was added at 300 μL/well, and the plate was blocked for 3 h at room temperature. The microplate was washed once with PBST (PBS containing 0.1% of TWEEN 20) at 300 μL/well. The three mouse BCMA antibodies were serially 3-fold diluted from 10 μg/mL to the 7th concentration. The dilutions were added to the microplate at 100 μL/well. After a 1-h incubation at room temperature, the microplate was washed thrice with PBST at 300 μL/well. The HRP goat anti-mouse IgG antibody was 25,000-fold diluted with 1% BSA-PBST and added at 100 μL/well. After another 1-h incubation at room temperature, the microplate was washed thrice with PBST at 300 μL/well and dried. The TMB chromogenic solution was added at 100 μL/well. After a 5-min reaction at room temperature, 2 M H₂SO₄ was added at 100 μL/well to terminate the reaction. The microplate was placed on a microplate reader (Molecular Devices, SPECTRA Max plus 384) and the absorbance OD450 value was read at 450 nm wavelength.

[10] = target: T4, recombinant cynomolgus monkey cynoBCMA-his (ACRO Biosystem, Cat. No. BCA-052H7) (cynomolgus monkey, UniProt A0A2K5UD97 1-53); test: competitive ELISA, coated cynoBCMA-his, competitor 83A10-biotin
T4 construct: extracellular domain; Bought protein; also called cynomolgus/rhesus macaque BCMA/TNFRSF17 protein; not shown: His tag

[11] = target: T5, cynomolgus monkey BCMA on HEK293 cynoBCMA cells (cynomolgus monkey, UniProt A0A2K5UD97 1-183); test: flow cytometry on HEK293 cynoBCMA cells
T5 construct: whole, on cells
Protocol: as §1

[12] = target: T4, recombinant cynomolgus monkey …; test: SPR (Biacore T200), anti-His capture on CM5, 1:1 fit
Protocol: as §2, §3

[13] = target: T4, recombinant cynomolgus monkey …; test: ELISA, coated antigen
Protocol: as §4

[14] = target: T1, recombinant human BCMA-his fusion …; test: competitive ELISA, coated huBCMA-his, competitor APRIL-biotin; remark: listed apart in the source
Protocol: The 96-well microplate was treated with 100 μL of 0.5 μg/mL huBCMA-his in PBS and incubated overnight at 4° C. The plate was then washed thrice with PBS washing buffer containing 0.1% of Tween-20 and blocked with 300 μL of PBS containing 1% of BSA for 2 h. 100 μL of each BCMA antibody was added to the plate. […] The plate was incubated at 37° C. for 1 h, and unbound secondary antibody was washed with PBS washing buffer containing 0.1% of Tween-20. The TMB chromogenic solution was added at 100 μL/well. After a 5-min reaction at room temperature, 2 M H₂SO₄ was added at 100 μL/well to terminate the reaction. The microplate was placed on a microplate reader (Molecular Devices, SPECTRA Max plus 384) and the absorbance OD450 value was read at 450 nm wavelength.

T4 sequence (A0A2K5UD97 entry or part of it): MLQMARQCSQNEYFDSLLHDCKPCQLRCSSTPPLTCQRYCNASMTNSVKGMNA
T5 sequence (A0A2K5UD97 entry or part of it): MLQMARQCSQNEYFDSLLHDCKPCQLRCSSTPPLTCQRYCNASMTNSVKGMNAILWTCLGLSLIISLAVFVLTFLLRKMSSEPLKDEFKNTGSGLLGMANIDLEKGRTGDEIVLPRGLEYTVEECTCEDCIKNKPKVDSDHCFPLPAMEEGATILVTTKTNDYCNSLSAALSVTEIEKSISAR

Binder | EC50 [2] [nM] | IC50 [3] [µg/mL] | IC50 [4] [µg/mL] | Kd [5] [nM] | koff [5] [s⁻¹] | kon [5] [M⁻¹ s⁻¹] | EC50 [6] [nM] | EC50 [7] [nM] | EC50 [8] [nM] | EC50 [9] [nM] | other results
humanized antibody hu-mAb2 (VH2+VL2) (antibody, V domains shown, human IgG1/kappa named only as preferred) VH: QVQLVQSGAEVKKPGSSVKVSCKVSGYTFTDHTIHWMKQAPGQGLEWIGYIYPRNGNTKYNEKFKGKATLTADKSTSTAYMELSSLRSEDTAVYFCARYDYDGYFDVWGQGTLVTVSS VL: DVVMTQTPLSLSVTPGQPASISCRSSQSHVHSDGHTYLHWYLQKPGQSPELLIYKVSNRFSGVPDRFSGSGSGTDFTLKISRVEAEDVGVYFCSQNTHFPWTFGGGTKVEIK | 0.83 | 8.35 | 2.76 | 1.15 | 0.0258 | 2.24e+07 | 0.00271 |  |  |  | competition [1]: 30%
mouse monoclonal antibody 202E11H10E3 (antibody, V domains shown, detected with anti-mouse IgG; also called Clone 202E11H10E3; BCMA-HC2/BCMA-LC2) VH: QVQLQQSDAELVKPGTSVKISCKVSGYTFTDHTIHWMKQRPEQGLEWIGYIYPRNGNTKYNEKFKGKATLTADKSSSTAYMHLNSLTSEDSAVYFCARYDYDGYFDVWGTGTTVTVSS VL: DVVMTQTPLSLPVSLGDQASISCRSSQSHVHSDGHTYLHWYLQKPGQSPELLIYKVSNRFSGVPDRFSGSGSGTDFTLKISRVEAEDLGVYFCSQNTHFPWTFGGGTKLEIK |  |  |  |  |  |  |  | 1.1 | 1 | 0.0764 | 
humanized antibody hu-mAb3 (VH3+VL3) (antibody, V domains shown, human IgG1/kappa named only as preferred) VH: QVQLVQSGAEVKKPGASVKVSCKASGYTITDYNMDWVRQAPGQGLEWIGNINPHNGGSIYNQKFQGRATLTVDKSTSTAYMELSSLRSEDTAVYYCARGDATLVLDYWGQGTTVTVSS VL: DIQLTQSPSSLSASVGDRATITCRASKSVSTSGLSYMHWYQQKPGKAPKVLIYLASNLESGVPARFSGSGSGTDFTLTISSVQPEDFATYYCQHSRELPPTFGQGTKLELK | 8.07 | 1.37 | 0.918 | 0.399 | 0.00235 | 5.9e+06 | 0.0226 |  |  |  | IC50 [10]: 1.32 µg/mL; EC50 [11]: 3.76 nM; Kd [12]: 0.256 nM; koff [12]: 0.000773 s⁻¹; kon [12]: 3.02e+06 M⁻¹ s⁻¹; EC50 [13]: 0.0303 nM
mouse monoclonal antibody 18F6G3H9 (antibody, V domains shown, detected with anti-mouse IgG; also called Clone 18F6G3H9; BCMA-HC1/BCMA-LC1) VH: EVQLQQSGPELVKPGTSVEMSCKASGYTFTDYNIHWVRQRHGESLEWLGYINPNNGVTNFNQKFKGKATLTVNKSSSTAYMELRSLTSDDSAVYYCSSGLFDGYPFPYWGQGTLVTVSA VL: DIVLTQSPASLVVSLGQRATISCRASKSVSTSGYNYIHWYQQKPGQPPKLLIFLASNLKSGVPARFSGGGSGTDFTLNIHPVEEDDAATYFCQHNRELPYTFGGGTKVEIK |  |  |  |  |  |  |  | 3.1 | 1.6 | 0.0705 | 
soluble human APRIL (ACRO, Cat. No. APL-H5244) (ligand, UniProt O75888 115-250, looked up, also called APRIL ligand; APRIL-biotin) HSVLHLVPINATSKDDSDVTEVMWQPALRRGRGLQAQGYGVRIQDAGVYLLYSQVLFQDVTFTMGQVVSREGQGRQETLFRCIRSMPSHPDRAYNSCYSAGVFHLHQGDILSVIIPRARAKLNLSPHGTFLGFVKL |  |  | 3.7 |  |  |  |  |  |  |  | IC50 [14]: 0.0247 µg/mL
